Source: the supplement of paper PMC7877785
± gives the uncertainty stated by the source.

Assay: self-splicing fitness, log relative to wild type (ln ratio); higher = more splicing; Tetrahymena group I intron in knt gene, E. coli kanamycin selection, DiMSum; sequences stand for … in CUCUCU…GGAGGGAAAAGUUAUCAGGCAUGCACCUGGUAGCUAGUCUUUAAACCAAUAGAUUGCAUCGGUUUAAAAGGCAAGACCGUCAAAUUGCGGGAAAGGGGUCAACAGCCGUUCAGUACCAAGUCUCAGGGGAAACUUUGAGAUGGCCUUGCAAAGGGUAUGGUAAUAAGCUGACGGACAUGGUCCUAACCACGCAGCCAAGUCCUAAGUCAACAGAUCUUCUGUUGAUAUGGAUGCAGUUCACAGACUAAAUGUCGGUCGGGGAAGAUGUAUUCUUCUCAUAAGAUAUAGUCGGACCUCUCCUUAAUGGGAGCUAGCGGAUGAAGUGAUGCAACACUGGAGCCGCUGGGAACUAAUUUGUAUGCGAAAGUAUAUUGAUUAGUUUUGGAGUACUCGUGGUCG
In short: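 A randomised library covering all eight P1ex-region intron nucleotides was built with the intron in the knt kanamycin-resistance gene on pET-22b(+) and held in E. coli BL21(DE3). Cells were grown overnight at 37°C or 30°C on LB agar, with or without 25 μg/mL kanamycin, plus 100 μg/mL carbenicillin, 50 μM IPTG and 0.2% rhamnose, and pooled colonies were amplicon-sequenced on an Illumina HiSeq 2500. DiMSum fitness is the error-weighted combination of wild-type-normalised replicate fold changes, kanamycin versus none.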

Sequence | self-splicing fitness (ln) (30 °C) | self-splicing fitness (ln) (37 °C)
UAUAAGCAAUAUUACGUAUG | -1.31 ± 0.091 | -0.577 ± 0.12
UUUAAGCAAUAUUACGAUAA | -0.773 ± 0.1 | 0.228 ± 0.13
CGCUAGCAAUAUUACGACAC | -3.1 ± 0.23 | -1.33 ± 0.21
GGGCAGCAAUAUUACGCAAC | -0.812 ± 0.16 | -1.56 ± 0.13
UUCAAGCAAUAUUACGCUUU | -5.08 ± 0.41 | -2.37 ± 0.28
GUGUAGCAAUAUUACGGACU | -0.979 ± 0.1 | -0.103 ± 0.12
UCAUAGCAAUAUUACGCCUA | -2.62 ± 0.34 | -1.85 ± 0.27
CGGGAGCAAUAUUACGCGAG | – | -2.93 ± 0.32
UAUGAGCAAUAUUACGAUCG | -1.79 ± 0.12 | -0.568 ± 0.12
UCGUAGCAAUAUUACGACAC | -3.54 ± 0.34 | -2.7 ± 0.4
AUACAGCAAUAUUACGGCUC | -0.178 ± 0.075 | 0.157 ± 0.1
GAUCAGCAAUAUUACGCCUC | -1.36 ± 0.18 | -0.876 ± 0.23
CCUUAGCAAUAUUACGGCGU | -3.94 ± 0.33 | -2.78 ± 0.32
GGAAAGCAAUAUUACGUAAU | -1.3 ± 0.07 | -1.23 ± 0.12
UGCAAGCAAUAUUACGCAGG | -4.36 ± 0.33 | -3.48 ± 0.37
CUGGAGCAAUAUUACGGUUA | -1.79 ± 0.26 | -2.31 ± 0.26
UCCUAGCAAUAUUACGAUAA | -3.25 ± 0.29 | -1.56 ± 0.17
AAUGAGCAAUAUUACGACCG | -3.45 ± 0.36 | -1.24 ± 0.34
GGAAAGCAAUAUUACGCUGU | -1.07 ± 0.11 | -0.375 ± 0.17

Sequence | self-splicing fitness (ln) (30 °C) | self-splicing fitness (ln) (37 °C)
ACGAAGCAAUAUUACGACCU | 0.0549 ± 0.12 | 0.126 ± 0.13
UUCCAGCAAUAUUACGAUCA | -1.26 ± 0.2 | -1.27 ± 0.2
CCGGAGCAAUAUUACGUAUG | -1.41 ± 0.071 | -0.561 ± 0.083
UCAUAGCAAUAUUACGUUCG | -1.03 ± 0.098 | -0.686 ± 0.1
AACUAGCAAUAUUACGCCUU | -0.414 ± 0.073 | 0.376 ± 0.1
GACGAGCAAUAUUACGACGU | -2.31 ± 0.23 | -1.13 ± 0.25
UGACAGCAAUAUUACGGUAA | -1.85 ± 0.12 | -0.692 ± 0.11
CUGUAGCAAUAUUACGGUGU | -3.41 ± 0.12 | -2.88 ± 0.14
UGGCAGCAAUAUUACGAGCA | -0.315 ± 0.098 | -0.218 ± 0.12
GUCGAGCAAUAUUACGGAAA | -2.83 ± 0.23 | -2.11 ± 0.22
ACACAGCAAUAUUACGUGUU | -3.16 ± 0.073 | -3.62 ± 0.16
AGUGAGCAAUAUUACGAUAC | -3.02 ± 0.22 | -2.47 ± 0.34
CCGCAGCAAUAUUACGGAGA | -2.53 ± 0.17 | -2.36 ± 0.21
CUCAAGCAAUAUUACGGAAU | -3.95 ± 0.26 | -2.67 ± 0.22
GAUUAGCAAUAUUACGAGAG | -3.5 ± 0.25 | -1.83 ± 0.18
AGUCAGCAAUAUUACGUCCG | -2.14 ± 0.12 | -1.29 ± 0.18
GGCUAGCAAUAUUACGGAUG | -0.642 ± 0.13 | -0.56 ± 0.15
GUCAAGCAAUAUUACGAUCA | -1.76 ± 0.23 | -0.845 ± 0.15
UCCAAGCAAUAUUACGUGUC | -3.42 ± 0.12 | -2.94 ± 0.12
